Test results as given in patent US8461305B2, “L-fucose α1→6 specific lectin” (J-Oil Mills, Inc., priority 2008, dated 2013).

T1: α-fetoprotein (mainly L1-type sugar chain) (Homo sapiens, UniProt P02771)
T1 construct: derived from human umbilical cord blood serum; from tissue; host or cells: human umbilical cord blood serum
T1 sequence (P02771 19-609): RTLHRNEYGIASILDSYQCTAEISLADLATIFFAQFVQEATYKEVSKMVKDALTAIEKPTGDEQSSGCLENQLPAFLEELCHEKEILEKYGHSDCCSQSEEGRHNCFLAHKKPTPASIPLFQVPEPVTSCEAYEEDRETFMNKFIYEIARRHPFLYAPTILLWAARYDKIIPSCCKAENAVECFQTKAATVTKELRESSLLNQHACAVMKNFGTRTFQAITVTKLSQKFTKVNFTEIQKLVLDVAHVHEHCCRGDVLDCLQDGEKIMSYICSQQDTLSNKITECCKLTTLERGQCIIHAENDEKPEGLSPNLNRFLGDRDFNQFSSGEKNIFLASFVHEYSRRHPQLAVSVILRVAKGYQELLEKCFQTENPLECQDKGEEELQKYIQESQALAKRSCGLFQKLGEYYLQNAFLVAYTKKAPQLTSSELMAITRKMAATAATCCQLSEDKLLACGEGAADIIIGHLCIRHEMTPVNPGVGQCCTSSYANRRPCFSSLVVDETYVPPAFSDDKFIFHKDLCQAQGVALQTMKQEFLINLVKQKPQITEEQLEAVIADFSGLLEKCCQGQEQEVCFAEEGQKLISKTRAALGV

T2: α-fetoprotein-L3 (Homo sapiens, UniProt P02771)
T2 construct: prepared from the culture supernatant of human liver cancer cells; endogenous in cells
T2 sequence (P02771 19-609): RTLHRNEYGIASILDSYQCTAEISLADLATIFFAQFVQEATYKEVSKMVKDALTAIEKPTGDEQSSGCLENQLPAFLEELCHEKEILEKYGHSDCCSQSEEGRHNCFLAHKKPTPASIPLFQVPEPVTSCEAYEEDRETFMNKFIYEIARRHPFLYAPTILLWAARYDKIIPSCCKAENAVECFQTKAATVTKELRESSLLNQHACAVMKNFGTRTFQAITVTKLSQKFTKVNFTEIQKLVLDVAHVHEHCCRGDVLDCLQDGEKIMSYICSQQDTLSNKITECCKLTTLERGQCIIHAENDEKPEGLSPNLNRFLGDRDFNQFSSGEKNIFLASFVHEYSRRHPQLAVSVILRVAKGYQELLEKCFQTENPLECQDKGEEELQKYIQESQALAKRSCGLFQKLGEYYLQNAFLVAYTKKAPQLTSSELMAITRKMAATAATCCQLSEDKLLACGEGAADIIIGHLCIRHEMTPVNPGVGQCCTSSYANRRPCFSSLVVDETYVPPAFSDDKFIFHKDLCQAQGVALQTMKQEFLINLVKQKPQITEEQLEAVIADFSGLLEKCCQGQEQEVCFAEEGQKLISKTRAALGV

B1: Lens culinaris agglutinin (protein)
chain 1: TETTSFSITKFSPDQKNLIFQGDGYTTKGKLTLTKAVKSTVGRALYSTPIHIWDRDTGNVANFVTSFTFVIDAPSSYNVADEFTFFIAPVDTKPQTGGGYLGVFNSKEYDKTSQTVAVEFDTFYNAAWDPSNKERHIGIDVNSIKSVNTKSWNLQNGERANVVIAFNAATNVLTVTLTYP
chain 2: VTSYTLNEVVPLKDVVPEWVRIGFSATTGAEFAAHEVHSWSFHSELGGTSSS
B2: Aleuria aurantia lectin (protein)
chain: PTEFLYTSKIAAISWAATGGRQQRVYFQDLNGKIREAQRGGDNPWTGGSSQNVIGEAKLFSPLAAVTWKSAQGIQIRVYCVNKDNILSEFVYDGSKWITGQLGSVGVKVGSNSKLAALQWGGSESAPPNIRVYYQKSNGSGSSIHEYVWSGKWTAGASFGSTVPGTGIGATAIGPGRLRIYYQATDNKIREHCWDSNSWYVGGFSASASAGVSIAAISWGSTPNIRVYWQKGREELYEAAYGGSWNTPGQIKDASRPTPSLPDTFIAANSSGNIDISVFFQASGVSLQQWQWISGKGWSIGAVVPTGTPAGW

Experiments:
sheep erythrocytes = assay: hemagglutinating activity test, sheep erythrocytes; format: cell-based; settings: for hemagglutinating activity, titer (1.0 mg/ml): lectin 1.0 mg/ml
Excerpt: (§1) The sugar binding specificity of lectin also can be confirmed by using erythrocytes that can be specifically agglutinated by the lectin to investigate the sugar type that may inhibit the agglutination of the erythrocytes and the concentration thereof.
(§2) PTL and SRL were subjected to hagglutinating activity test for rabbit, equine, pig, sheep, human (A, B, O), and actinase E-treated rabbit erythrocytes.

rabbit erythrocytes = assay: hemagglutinating activity test, rabbit erythrocytes; format: cell-based; settings: for hemagglutinating activity, titer (1.0 mg/ml): lectin 1.0 mg/ml
Excerpt: as §1, §2

equine erythrocytes = assay: hemagglutinating activity test, equine erythrocytes; format: cell-based
Excerpt: as §1, §2

[1] = molecular target: T1, α-fetoprotein (mainly L1-type sugar chain); assay: detection of tumor marker sugar chain by ELISA; format: binding; settings: α-fetoprotein from human umbilical cord blood serum, coated at 0.01 μg/ml
Excerpt: (§3) α-fetoprotein (hereinafter referred to as “AFP”) is a glycoprotein included in a blood serum having an N-linked sugar chain. Substantially no AFP exists in the blood serum of a healthy adult. On the other hand, the blood serum of a patient having a benign liver disease has an increased α-fetoprotein L1-type sugar chain (AFP-L1). Furthermore, α-fetoprotein L3-type sugar chain (AFP-L3) is detected in a patient of a liver cancer. Conventionally, the difference in a sugar chain has been measured by LCA and the measurement result has been used for the diagnosis of a liver disease.
(§4) PTL of Example 1, SRL of Example 2, AAL of Comparison Example 1, AOL of Comparison Example 2, and the LCA of Comparison Example 3 that were biotin-labeled were used to evaluate the binding property of α-fetoprotein by ELISA.
(§5) 0.1 M carbonic acid buffer solution (pH 9.5) was used to dilute α-fetoprotein (derived from human umbilical cord blood serum, mainly L1-type sugar chain) and α-fetoprotein-L3 (prepared from the culture supernatant of human liver cancer cells) so as to achieve 0.01 μg/ml. Then, the resultant solution was added to a microtiter plate (Nunc) and was incubated at 4 degrees C. one night. After the solution was cleaned by 0.05% Tween/PBS three times, 1% BSA/PBS was added to wells and the solution was incubated at 37 degrees C. for one hour. After the solution was washed by 0.05% Tween/PBS three times, the wells were added with the biotin-labeled lectin solution appropriately diluted by 1% BSA/0.05% Tween/PBS and the solution was incubated at 37 degrees C. for one hour. After the solution was cleaned by 0.05% Tween/PBS three times, HRP labeled streptavidin solution diluted by 1% BSA/0.05% Tween/PBS was added and the solution was incubated at 37 degrees C. for 30 minutes. After the solution was cleaned by 0.05% Tween/PBS three times, TMB Peroxidase substrate system (KPL) was added and the resultant solution was incubated at a room temperature for 10 minutes while light was being blocked. The reaction was stopped by 1 M phosphoric acid. Then, a microplate reader (MPR-A4i, TOSOH CORPORATION) was used to measure the absorbance at 450 nm.
(§6) The absorbance at 450 nm of the plate on which α-fetoprotein and α-fetoprotein-L3 were caused to react with lectin was measured. Based on this value, the reaction value ([absorbance at 450 nm of a well for which glycoprotein was solid-phased to the plate and reacted]−[absorbance at 450 nm of a well for which glycoprotein was not solid-phased to the plate and reacted]) was calculated. Next, for each lectin, the interaction was calculated. Next, the calculation result of the reaction values is shown in Table 10 and FIG. 24 to FIG. 28.

α-fetoprotein-L3 = molecular target: T2, α-fetoprotein-L3; assay: detection of tumor marker sugar chain by ELISA; format: binding; settings: α-fetoprotein-L3 from culture supernatant of human liver cancer cells, coated at 0.01 μg/ml
Excerpt: as §3, §4, §5, §6

[2] = test system: actinase E-treated rabbit erythrocytes; assay: hemagglutinating activity test, actinase E-treated rabbit erythrocytes; format: cell-based; settings: for hemagglutinating activity, titer (1.0 mg/ml): lectin 1.0 mg/ml
Excerpt: as §1, §2

pig erythrocytes = assay: hemagglutinating activity test, pig erythrocytes; format: cell-based; settings: for hemagglutinating activity, titer (1.0 mg/ml): lectin 1.0 mg/ml
Excerpt: as §1, §2

[3] = test system: human (A, B, O) erythrocytes; assay: hemagglutinating activity test, human (A, B, O) erythrocytes; format: cell-based; settings: for hemagglutinating activity, titer (1.0 mg/ml): lectin 1.0 mg/ml
Excerpt: as §2

Molecule	Minimum hemagglutinating concentration (sheep erythrocytes) [µg/mL]	hemagglutinating activity, titer (1.0 mg/ml) (sheep erythrocytes) [titer]	Minimum hemagglutinating concentration (rabbit erythrocytes) [µg/mL]	hemagglutinating activity, titer (1.0 mg/ml) (rabbit erythrocytes) [titer]	Minimum hemagglutinating concentration (equine erythrocytes) [µg/mL]	hemagglutinating activity, titer (1.0 mg/ml) (equine erythrocytes; lectin 1.0 mg/ml) [titer]	reaction value (absorbance at 450 nm, blank-subtracted) by ELISA [1]	reaction value (absorbance at 450 nm, blank-subtracted) by ELISA (α-fetoprotein-L3)	Minimum hemagglutinating concentration [2] [µg/mL]	hemagglutinating activity, titer (1.0 mg/ml) [2] [titer]	Minimum hemagglutinating concentration (pig erythrocytes) [µg/mL]	hemagglutinating activity, titer (1.0 mg/ml) (pig erythrocytes) [titer]	Minimum hemagglutinating concentration ([3]; Human A erythrocytes) [µg/mL]	hemagglutinating activity, titer (1.0 mg/ml) ([3]; Human A erythrocytes) [titer]	Minimum hemagglutinating concentration ([3]; Human B erythrocytes) [µg/mL]	hemagglutinating activity, titer (1.0 mg/ml) ([3]; Human B erythrocytes) [titer]	Minimum hemagglutinating concentration ([3]; Human O erythrocytes) [µg/mL]	hemagglutinating activity, titer (1.0 mg/ml) ([3]; Human O erythrocytes) [titer]
Stropharia rugosoannulata lectin [SRL, novel L-fucose α1→6 specific lectin purified from the mushroom Stropharia rugosoannulata]	>333	<1	5.21	64	2.61	128	0.031	1.625	0.651	512	10.4	32	>333	<1	>333	<1	>333	<1
Aspergillus oryzae lectin [AOL, reference compound]							0.011	0.898										
Pholiota terrestris lectin [PTL, novel L-fucose α1→6 specific lectin purified from the mushroom Pholiota terrestris]	>333	<1	5.21	64			0.039	1.548	0.13	2560	20.8	16	>333	<1	>333	<1	>333	<1
B1							0.010	0.455										
B2							−0.049	0.795										
